Data from paper PMC10897456, “B. subtilis MutS2 splits stalled ribosomes into subunits without mRNA cleavage” (The EMBO Journal, 2023).

Columns and labels:
Experiment in all cases: cryo-EM structure; reconstituted complex: His-MutS2 WT in tenfold excess over purified B. subtilis disomes, 50 mM HEPES/KOH pH 7.5, 75 mM KOAc, 5 mM Mg(OAc)2, 45 mM NH4Cl, 4 mM MgCl2, 1 mM MnCl2, 1 mM AMP-PNP, 30 °C for 1 h; 3.8 Å
Conditions in all cases: both partners purified
ribosomal protein uS10 = ribosomal protein uS10 (B. subtilis (endogenous in B. subtilis …, UniProt P21471 1-102))
ribosomal protein uS11 = ribosomal protein uS11 (B. subtilis (endogenous in B. subtilis …, UniProt P04969 1-131))
ribosomal protein uS7 = ribosomal protein uS7 (B. subtilis (endogenous in B. subtilis …, UniProt P21469 1-156))

Measured: binding result

B1: His-MutS2 WT (recombinant B. subtilis MutS2) (natural protein)
chain: MQQKVLSALEFHKVKEQVIGHAASSLGKEMLLELKPSASIDEIKKQLDEVDEASDIIRLRGQAPFGGLVDIRGALRRAEIGSVLSPSEFTEISGLLYAVKQMKHFITQMAEDGVDIPLIHQHAEQLITLSDLERDINSCIDDHGEVLDHASETLRGIRTQLRTLESRVRDRLESMLRSSSASKMLSDTIVTIRNDRFVIPVKQEYRSSYGGIVHDTSSSGATLFIEPQAIVDMNNSLQQAKVKEKQEIERILRVLTEKTAEYTEELFLDLQVLQTLDFIFAKARYAKAVKATKPIMNDTGFIRLKKARHPLLPPDQVVANDIELGRDFSTIVITGPNTGGKTVTLKTLGLLTLMAQSGLHIPADEGSEAAVFEHVFADIGDEQSIEQSLSTFSSHMVNIVGILEQVNENSLVLFDELGAGTDPQEGAALAMSILDDVHRTNARVLATTHYPELKAYGYNREGVMNASVEFDIETLSPTYKLLIGVPGRSNAFEISKRLGLPDHIIGQAKSEMTAEHNEVDTMIASLEQSKKRAEEELSETESIRKEAEKLHKELQQQIIELNSKKDKMLEEAEQQAAEKVKAAMKEAEDIIHELRTIKEEHKSFKDHELINAKKRLEGAMPAFEKSKKPEKPKTQKRDFKPGDEVKVLTFGQKGTLLEKTGGNEWNVQIGILKMKVKEKDLEFIKSAPEPKKEKMITAVKGKDYHVSLELDLRGERYENALSRVEKYLDDAVLAGYPRVSIIHGKGTGALRKGVQDLLKNHRSVKSSRFGEAGEGGSGVTVVELK
notes: MutS2 of B. subtilis (87 kD); core/lever, clamp, P-loop ABC ATPase, KOW and SMR domains; SMR domain printed as residues 710-785; SEC: oligomer, consistent with a dimer or tetramer; the text calls it a homodimer on the disome; Only the KOW and SMR domains are resolved in the structure (AlphaFold2 models fitted as rigid bodies); also called RqcU; source: E. coli BL21(DE3), pET24d(+), purified …
binds: ribosomal protein uS10 | ribosomal protein uS11 | ribosomal protein uS7
